From patent US20060089489A1 (MATSUSHITA ELECTRIC INDUSTRIAL, published 2006)

Biological target: the molecule itself
Experiment: CD spectrometry of 300 uM peptide in phosphate buffer pH 7.5 (self-assembly into nanofiber)

B1: Glu-Phe-Ile-Val-Ile-Phe-Lys peptide (EK7aa) (peptide)
peptide: EFIVIFK
notes: Synthetic designed peptide that self-assembles into amyloid-like nanofibers
B1: binds.
